First the molecules themselves.
B1: PPP2R2C (parent)
chain: YSSSKGSLRLCDMRAAALCDKHSK
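Note: lentivirally expressed fusions sorted by FACS into six bins by GFP to DsRed ratio, PSI derived from sequencing read proportions per bin multiplied by bin number.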

In this series the parent is B1. Nature of the series: protein stability index of a GFP-peptide fusion (GPS, HEK-293T) (PSI 1-6); higher = more stable. As to conditions: c terminus: a fixed tail appended.
As to YSSSKGSLRLCDMRAAALCDKHST, the protein stability index worked out at 2.39.

As for YSSSKGSLRLCDMRAAALCDKHSV, the protein stability index was found to be 1.74. The same measure for YSSSKGSLRLCDMRAAALCDKHSY: 1.52; for YSSSKGSLRLCDMRAAALCDKHSW: 2.51.

These data come from the supplement of paper PMC10567573.
